Data: patent US20110289605A1, “Animal Model for Osteoarthritis and Intervertebral Disc Disease” (THE UNIVERSITY OF ROCHESTER, priority 2008, published 2011)
Entries after “also recorded” stand apart in the source; their conditions may differ.

B1: Wnt3a: canonical Wnt ligand (protein, UniProt P56704 19-352, looked up)
Protein Wnt-3a: SYPIWWSLAVGPQYSSLGSQPILCASIPGLVPKQLRFCRNYVEIMPSVAEGIKIGIQECQHQFRGRRWNCTTVHDSLAIFGPVLDKATRESAFVHAIASAGVAFAVTRSCAEGTAAICGCSSRHQGSPGKGWKWGGCSEDIEFGGMVSREFADARENRPDARSAMNRHNNEAGRQAIASHMHLKCKCHGLSGSCEVKTCWWSQPDFRAIGDFLKDKYDSASEMVVEKHRESRGWVETLRPRYTYFKVPTERDLVYYEASPNFCEPNPETGSFGTRDRTCNVSSHGIDGCDLLCCGRGHNARAERRREKCRCVFHWCCYVSCQECTRVYDVHTCK

Key:
[1] = test system: Col2a1-CreER^T2;R26R mice; experiment: TM-induced Cre-recombination in articular and growth plate chondrocytes, X-Gal staining; type: in vivo, mouse; conditions: for Cre-recombination efficiency in articular chondrocytes: n=3
Description: Col2a1-CreER^T2 transgenic mice were bred with Rosa26 reporter mice. Methods for mouse genotyping including primer sequences are the same as described previously (Chen et al., Genesis 45:44-50 (2007); Zhu et al., Osteoarthr. Cartilage 16:129-30 (2008)). Tamoxifen (TM, 1 mg/10 g body weight/day, i.p. injection, ×5 days) was administered to the 3- and 6-month-old mice, which were sacrificed 2 months after TM induction at the age of 5 and 8 months. Cre-recombination efficiency was evaluated by X-Gal staining. Nuclear Fast Red staining was performed as a counter stain. β-catenin^fx(Ex3)/fx(Ex3) mice were originally reported by Harada et al (Harada et al., Embo J. 18:5931-42 (1999)). The sequences of PCR primers for genotyping β-catenin^fx(Ex3)/fx(Ex3) mice are: upper primer, 5′-[…]-3′ (SEQ ID NO:10) and lower primer, 5′-[…]-3′ (SEQ ID NO:11). The 412-bp PCR product was detected in wild-type mice, and the 645-bp PCR product was detected in homozygous β-catenin^fx(Ex3)/fx(Ex3) mice. In heterozygous mice (β-catenin^fx(Ex3)/wt), both 412 and 645-bp PCR products were detected. The Col2a1-CreER^T2;β-catenin^fx(Ex3)/w transgenic mice and their Cre-negative littermates were used as controls and were administered TM as the experimental animals for phenotype analysis and cellular function studies.
In the present study, TM-induced Cre-recombination in fully developed growth-plate cartilage was investigated. Thus, creating the possibility of completely separating the role of a specific gene in articular chondrocytes from its potential effect on the growth plate cartilage, which may indirectly affect the function of articular cartilage. Col2a1-CreER^T2 transgenic mice were bred with Rosa26 reporter mice (Soriano, Nat. Genet. 21:70-71 (1999); Mao et al., Proc. Natl. Acad. Sci. USA 96:5037-42 (1999)). TM induction was performed in the 3- and 6-month-old Col2a1-CreER^T2;R26R mice. Mice were then sacrificed 2 months after TM induction at the age of 5 and 8 months and Cre-recombination efficiency was evaluated by X-Gal staining.

[2] = test system: IVD cells of Col2a1-CreER^T2;R26R transgenic mice; experiment: TM-induced Cre-recombination in intervertebral disc (IVD) cells, X-Gal staining; type: in vivo, mouse; conditions: TM to 2-week-old mice, X-Gal staining at 1 month of age; listed as TM
Description: Since chondrocyte-specific β-catenin cAct mice (targeted by Col2a1-Cre transgenic mice) are embryonic lethal, to target intervertebral disc (IVD) cells (Col2a1-positive cell population) in postnatal and adult mice, the Col2a1-CreER^T2;R26R transgenic mice were used. Cre-recombination efficiency in IVD cells was determined in postnatal mice. TM (1 mg/10 g body weight, i.p., ×5 days) was administered into 2-week-old Col2a1-CreER^T2;R26R transgenic mice. Mice were sacrificed at 1 month of age and X-Gal staining was performed.

[3] = test system: RCS chondrogenic cell line; experiment: Wnt3a treatment of RCS cells, Mmp-13 mRNA expression; type: cell-based; conditions: 24 and 48 hours
Description: Total RNA extracted from primary articular chondrocytes, articular cartilage tissue, or primary disc cells was prepared using Trizol (Invitrogen; Carlsbad, Calif.) according to the manufacturer's protocol. One microgram total RNA was used to synthesize cDNA by iScripts cDNA Synthesis Kit (Bio-Rad; Hercules, Calif.).
(§1) To determine the signaling mechanism through which β-catenin regulates Mmp-13 gene expression, in vitro studies using a RCS chondrogenic cell line were performed. […] A putative Runx2 binding site was identified within the 3.4 kb region of the Mmp-13 promoter.

[4] = test system: RCS chondrogenic cell line; experiment: Wnt3a treatment, Runx2 protein expression (Western blot); type: cell-based; conditions: 0-48 hours
Description: as §1

[5] = test system: 3.4 kb mouse Mmp-13 promoter; experiment: Mmp-13 promoter activity; type: cell-based
Description: as §1

Molecule	Cre-recombination efficiency in growth plate chondrocytes ([1]; TM administered in 3- and 6-month-old mice, 2 months after induction)	Cre-recombination efficiency in articular chondrocytes ([1]; TM administered in 3-month-old mice, X-Gal staining 2 months after induction (5-month-old)) [%]	Cre-recombination efficiency in articular chondrocytes ([1]; TM administered in 6-month-old mice, X-Gal staining 2 months later (8-month-old)) [%]	Cre-recombination efficiency in IVD cells [2]	Mmp-13 mRNA expression [3]	Runx2 protein expression [4]	Runx2 protein expression ([4]; listed as Wnt3a2)	Mmp-13 promoter activity, Runx2 binding site mutated ([5]; mutation of the Runx2 binding site in the promoter)	Mmp-13 promoter activity ([5]; wild-type 3.4 kb promoter)
CC/C(=C(\c1ccccc1)c1ccc(OCCN(C)C)cc1)c1ccccc1 [Tamoxifen]	less than 20%	84	76	high efficiency of Cre-recombination in annulus fibrosus cells and endplate cartilage cells but not in nucleus pulposus cells; also recorded: High Cre-recombination efficiency was observed in annulus fibrosus (AF) cells and endplate cartilage (EC) cells but not nucleus pulposus (NP) cells	–	–	–	–	–
B1	–	–	–	–	significantly increased; also recorded: stimulated Mmp-13 expression	stimulated Runx2 protein expression in a time-dependent manner	significantly up regulated	completely blocked the stimulatory effect; also recorded: completely abolished	stimulated Mmp-13 promoter activity
